The values below come from US20060286636A1.

Assay [1] addresses mouse VEGFR-2/Fc chimeric receptor (mouse) (UniProt P35918). As to the kind of experiment: competition plate binding assay: cold competitor against 125I-VEGF165 on immobilized VEGFR-2 (KDR)/Fc, scintillation counting.
Assay [2] addresses mouse VEGFR-1/Fc chimeric receptor (mouse) (UniProt P35969). As to the kind of experiment: competition plate binding assay: cold competitor against 125I-VEGF165 on immobilized VEGFR-1 (Flt-1)/Fc, scintillation counting.
The target in assay [3] is rat Neuropilin-1/Fc chimeric receptor (rat) (UniProt Q9QWJ9). Kind of assay: competition plate binding assay, cold competitor against 125I-VEGF165 on immobilized rat neuropilin-1/Fc, without heparin.
rat Neuropilin-1/Fc chimeric receptor (rat), sequence (Q9QWJ9 22-854, stated change not applied): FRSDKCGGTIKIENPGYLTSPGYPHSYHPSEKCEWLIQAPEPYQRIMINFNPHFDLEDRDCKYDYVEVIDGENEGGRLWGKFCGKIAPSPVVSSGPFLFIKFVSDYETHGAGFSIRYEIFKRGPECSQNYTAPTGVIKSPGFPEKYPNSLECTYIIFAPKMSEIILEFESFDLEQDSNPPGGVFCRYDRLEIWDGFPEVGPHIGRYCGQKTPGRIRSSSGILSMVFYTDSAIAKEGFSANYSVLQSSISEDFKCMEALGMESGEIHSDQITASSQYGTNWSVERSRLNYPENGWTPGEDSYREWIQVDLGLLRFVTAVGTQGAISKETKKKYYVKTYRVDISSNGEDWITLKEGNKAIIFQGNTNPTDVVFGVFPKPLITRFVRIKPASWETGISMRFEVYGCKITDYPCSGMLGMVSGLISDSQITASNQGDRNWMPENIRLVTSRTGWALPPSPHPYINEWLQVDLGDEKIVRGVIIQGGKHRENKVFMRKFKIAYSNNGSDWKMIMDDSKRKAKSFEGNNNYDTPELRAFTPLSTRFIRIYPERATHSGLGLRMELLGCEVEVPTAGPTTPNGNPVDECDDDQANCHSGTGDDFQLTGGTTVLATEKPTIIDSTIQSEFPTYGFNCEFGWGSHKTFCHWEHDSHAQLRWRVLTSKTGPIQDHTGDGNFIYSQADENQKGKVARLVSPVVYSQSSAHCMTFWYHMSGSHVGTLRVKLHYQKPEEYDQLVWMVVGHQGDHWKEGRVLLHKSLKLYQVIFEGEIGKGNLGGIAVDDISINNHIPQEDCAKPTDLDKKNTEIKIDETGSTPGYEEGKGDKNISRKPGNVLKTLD

mouse VEGFR-1/Fc chimeric receptor (mouse), sequence (P35969 23-759, stated change not applied): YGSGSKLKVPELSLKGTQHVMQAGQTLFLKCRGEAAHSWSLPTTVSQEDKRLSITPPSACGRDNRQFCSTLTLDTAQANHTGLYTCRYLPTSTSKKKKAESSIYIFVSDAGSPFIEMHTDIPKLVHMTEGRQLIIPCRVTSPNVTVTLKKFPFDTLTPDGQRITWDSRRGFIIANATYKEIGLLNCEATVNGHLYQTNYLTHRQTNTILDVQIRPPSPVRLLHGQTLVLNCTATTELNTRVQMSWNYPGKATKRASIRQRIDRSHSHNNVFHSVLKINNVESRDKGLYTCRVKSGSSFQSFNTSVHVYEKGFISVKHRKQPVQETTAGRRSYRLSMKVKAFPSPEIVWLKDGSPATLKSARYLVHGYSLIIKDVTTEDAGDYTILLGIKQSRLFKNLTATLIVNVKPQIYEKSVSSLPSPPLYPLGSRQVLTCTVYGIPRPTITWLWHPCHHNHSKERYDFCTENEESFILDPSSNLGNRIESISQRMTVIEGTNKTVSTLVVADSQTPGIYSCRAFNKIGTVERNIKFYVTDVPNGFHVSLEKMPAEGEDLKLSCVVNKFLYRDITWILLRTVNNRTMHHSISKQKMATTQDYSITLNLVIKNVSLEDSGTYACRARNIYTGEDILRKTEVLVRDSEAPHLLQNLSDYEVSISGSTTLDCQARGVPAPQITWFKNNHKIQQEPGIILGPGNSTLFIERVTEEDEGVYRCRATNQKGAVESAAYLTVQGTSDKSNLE
mouse VEGFR-2/Fc chimeric receptor (mouse), sequence (P35918 20-762, stated change not applied): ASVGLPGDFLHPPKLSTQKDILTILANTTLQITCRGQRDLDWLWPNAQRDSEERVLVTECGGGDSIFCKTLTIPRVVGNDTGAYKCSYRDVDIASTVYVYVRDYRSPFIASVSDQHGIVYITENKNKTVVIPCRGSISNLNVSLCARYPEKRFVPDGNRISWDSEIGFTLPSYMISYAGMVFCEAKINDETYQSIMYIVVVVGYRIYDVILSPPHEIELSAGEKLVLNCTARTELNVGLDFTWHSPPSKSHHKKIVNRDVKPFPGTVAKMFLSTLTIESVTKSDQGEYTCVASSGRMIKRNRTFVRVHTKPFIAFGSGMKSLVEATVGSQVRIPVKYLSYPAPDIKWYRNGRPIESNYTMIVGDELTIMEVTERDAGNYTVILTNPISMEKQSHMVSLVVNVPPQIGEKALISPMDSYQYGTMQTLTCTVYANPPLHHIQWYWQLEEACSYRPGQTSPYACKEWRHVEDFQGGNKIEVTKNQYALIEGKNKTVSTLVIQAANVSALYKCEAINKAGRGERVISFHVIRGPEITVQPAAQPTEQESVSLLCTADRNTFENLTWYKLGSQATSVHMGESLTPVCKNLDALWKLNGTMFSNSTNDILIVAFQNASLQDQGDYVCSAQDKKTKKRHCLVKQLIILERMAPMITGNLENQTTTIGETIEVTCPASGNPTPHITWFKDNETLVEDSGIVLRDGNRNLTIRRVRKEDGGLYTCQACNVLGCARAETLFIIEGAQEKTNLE

Regarding “VEGF164 double mutant R14A/R49A (from UniProt P15692 207-395) (ligand)”, the IC50 (read off the curve) was 0.08 nM in assay [1] and 0.09 nM in assay [2].
For “VEGF164 triple mutant R13A/R14A/R49A (from UniProt P15692 207-395) (ligand)”, in that order: 0.08 nM and 0.2 nM.
Turning to “VEGF164 mutant R13A/R14A/R46A/R49A (from UniProt Q00731 27-190) (ligand)”, in assay [3], the fold reduction of binding affinity compared to VEGF164 stood at 115 fold.
